What was measured:
pAKT^S473 = experiment: pAKT S473 western blot in primary mouse adipocytes; type: cell-based
Experimental: Mouse and human pre-adipocytes culture and differentiation. Inguinal fat pads from 4-8 week old C57BL/6J male and female mice were dissected and mechanically digested for 10 min using spring scissors. Digested tissues were incubated in WAT isolation buffer (10 ml PBS, 2.4 U/ml dispase II (#04942078001, Roche), 10 mg/ml collagenase D (#11088858001, Roche) at 37° C. for 45 min. 20 mL growth media was added and the tissue suspension was filtered through a 100-μm cell strainer and centrifuged at 600×g for 5 min. The cell pellets were resuspended in 20 mL growth media, filtered through a 40-μm cell strainer, centrifuged at 600×g for 5 min, resuspended in 10 mL growth media, and plated in 10-cm collagen-coated dishes. The cells were cultured in growth media (DMEM/F-12 Glutamax, Thermo Fisher Scientific #10565018) supplemented with 10% fetal bovine serum. Two days post-confluency, differentiation was induced with growth media containing 1 μM rosiglitazone, 0.5 mM isobutylmethylxanthine, 1 μM dexamethasone, 5 μg/mL insulin. After two days, cells were re-fed with growth media containing 1 μM rosiglitazone and 5 μg/mL insulin. […]
Western blots and molecular analyses. […] For Western blotting of plasma samples, 1 μl of plasma was prepared in 2× sample buffer (Invitrogen) with reducing agent, boiled, and analyzed using Western blot against indicated antibody. […]

AML12 hepatocytes [1] = experiment: Protein synthesis assay (3H-leucine incorporation into proteins) in AML12 hepatocytes; type: cell-based, mouse; conditions: 24 h
Experimental: Protein synthesis Assay. AML12 hepatocytes were washed twice with warm PBS and starved in serum-free media overnight. Indicated concentrations of insulin with or without ISM1 and 0.25 uCi of [3H]-Leucine (#NET460250UC, PerkinElmer) were added at the same time. After a 24 h incubation, cells were washed three times with ice cold PBS and lysed in RIPA buffer containing protease inhibitor cocktail (Roche). After 15 min centrifugation at 14000×g, supernatants were transferred to new tubes. Trichloroacetic acid was added to the protein extracts at a final concentration of 10% and incubated on ice for 1 h. After a 15 min centrifugation at 14000×g, pellets were washed with cold acetone, diluted in 10M NaOH and transferred to scintillation vials. The radioactivity was measured by liquid scintillation counting.

[2] = system: pAKT^T308, S6^S235/S236, PRAS40^Thr246, ERK1/2, PKA, PDK1, GSK3β; experiment: Time-course western blot of intracellular signaling pathways in 3T3-F442A cells; type: cell-based
Experimental: Western blots and molecular analyses. For western blotting, homogenized tissues or whole-cell lysates, samples were lysed in RIPA buffer containing protease inhibitor cocktail (Roche) and phosphatase inhibitor cocktail (Roche). Cell lysates were centrifuged at 14,000×g for 15 min and supernatants were prepared in 4×LDS Sample Buffer (Invitrogen) and separated by SDS-PAGE and transferred to Immobilon 0.45 μm membranes (Millipore). For Western blotting of plasma samples, 1 μl of plasma was prepared in 2× sample buffer (Invitrogen) with reducing agent, boiled, and analyzed using Western blot against indicated antibody. Protein kinase array (R&D systems ARY003B) was performed according to the manufacturers' description. All antibodies used in this paper are described in STAR methods.

AML12 hepatocytes [3] = experiment: Lipogenesis assay (3H-acetate incorporation into lipids) in AML12 hepatocytes; type: cell-based, mouse; conditions: 24 h
Experimental: Lipogenesis Assay. Primary hepatocytes or AML12 hepatocytes were washed twice with warm PBS and starved in serum-free DMEM overnight. Indicated concentrations of insulin with or without ISM1 were added at the same time. After 24 h, a mixture of 10 μM cold acetate and 2 μCi [3H]-Acetate (#NET003H005MC, PerkinElmer) was added to each well and cells were incubated for another 4 hr. Cells were washed with PBS twice and lysed using 0.1 N hydrogen chloride. Lipids were extracted by 2:1 chloroform-methanol (v/v). After centrifugation at 3000×g for 10 min, the lower phase was transferred to scintillation vials and radioactivity was measured by liquid scintillation counting.

[4] = system: differentiated 3T3-L1 adipocytes; experiment: 2-deoxy-3H-glucose uptake in differentiated 3T3-L1 adipocytes; type: cell-based; conditions: 1 h
Experimental: Glucose uptake. Glucose uptake was performed as previously described (You et al., 2017). Briefly, 2-Deoxy-d-[2,6-3H]-glucose was purchased from PerkinElmer NEN radiochemicals. Fully differentiated adipocytes were washed with KRH buffer and starved in 0.5% BSA in KRH buffer for 4 h. Indicated concentrations of insulin or ISM1 were added at indicated time points. Cells were treated with a mixture of 500 μM 2-deoxy-D-glucose and 1.71 μCimL^−1 2-Deoxy-D-[1,2-3H (N)]-glucose for another 10 min followed by three washes using ice cold KRH buffer containing 200 mM glucose. The passive glucose uptake in the presence of 50 uM CytoB was less than 12% of the total glucose uptake. Cells were solubilized in 1% SDS and radioactivity was measured by liquid scintillation counting.

B1: ISM1: recombinant mouse ISM1 protein with a C-terminal myc-his tag generated in mammalian HEK 293 Expi cells (protein, UniProt A2ATD1 30-454, looked up)
Isthmin-1: SDRQDAAAGNNNLNLESDSTSETSFPLSKEAPEEHQVVHQPFPRQRFPPETGHPSLQRDGPRSFLLDLPNFPDLSKADINGQNPNIQVTIEVVDGPDSEAEKDQHPENKPSWSLPAPDWRAWWQRSLSLARTNSGDQDDKYDSTSDDSNFLSVPRGWDRPAPGHRTFETKEQPEYDSTDGEGDWSLWSVCSVTCGNGNQKRTRSCGYACIATESRTCDRPNCPGIEDTFRTAATEVSLLAGSEEFNATKLFEVDMDSCERWMSCKSEFLKKYMHKVINDLPSCPCSYPTEVAYSTADIFDRIKRKDFRWKDASGPKEKLEIYKPTARYCIRSMLSLESTTLAAQHCCYGDNMQLITRGKGAGTPNLISTEFSAELHYKVDVLPWIICKGDWSRYNEARPPNNGQKCTESPSDEDYIKQFQEAREY
modifications: C-terminal myc-His tag
notes: recombinant mouse ISM1 protein with a C-terminal myc-his tag generated in mammalian HEK 293 Expi cells
- pAKT^S473 induction (pAKT^S473; differentiated primary mouse brown adipocytes): induced pAKT^S473
- pAKT^S473 induction (pAKT^S473; white adipocytes): induced pAKT^S473
- lipid synthesis versus protein synthesis, side-by-side (AML12 hepatocytes [1]; 100 nM ISM1 and 50 nM insulin vs 50 nM insulin alone): suppresses lipid synthesis in favor of protein synthesis
- induction of protein synthesis (H3-leucine incorporation) (AML12 hepatocytes [1]; combined chronic ISM1 and insulin (50 nM) treatment): 2.9 fold
- activation of S6^S235/S236 and PRAS40^Thr246 ([2]; 100 nM, time course): time-dependent activation
- pAKT^T308 phosphorylation ([2]; 100 nM, time course): phosphorylation at pAKT^T308 at all time points
- ERK1/2 phosphorylation ([2]; 100 nM, vs 20 ng/ml PDGF-ββ): does not evoke as robust ERK1/2 phosphorylation as the known mitogen PDGF-ββ
- ERK1/2 phosphorylation ([2]; 200 nM ISM1 vs 100 nM insulin): prolonged and more potent phosphorylation of ERK1/2 than insulin
- activity on other pathways such as PKA, PDK1 or GSK3P ([2]; even at 200 nM doses): does not display any activity or displays only weak activity
- lipogenesis at supraphysiological insulin (AML12 hepatocytes [3]; 50 nM ISM1 in presence of 200 nM insulin): sufficient to reduce lipogenesis
- insulin-induced lipogenesis (AML12 hepatocytes [3]; 50 and 100 nM ISM1 with 50 nM insulin): reverse the insulin-induced lipogenesis dose-dependently
- induction of glucose uptake [4]: does not induce glucose uptake

From US20240342244A1, “Isthmin Protein Therapeutics for the Treatment of Non-Alcoholic Fatty Liver Disease” (The Board of Trustees of the Leland Stanford Junior …, priority 2021, published 2024)
